According to patent publication US20190330277A1:

Assays:
[1] = target: bRSV RB94 DSCav1 (bovine respiratory syncytial virus, strain RB94) (UniProt P23728)
[2] = target: bRSV RB94 DSCav1 (bovine respiratory syncytial virus, strain RB94) (UniProt P23728); experiment: biolayer interferometry Octet binding analysis
[3] = target: 391-2-DS-Cav1-BZGJ9deleteFS; experiment: ELISA, variant from culture supernatant on Ni-NTA plate [continued]
[4] = target: 391-2-DS-Cav1-sc9 99C-361C; experiment: ELISA, variant from culture supernatant on Ni-NTA plate; further: unit not given here
[5] = target: RB94 sc9 DS-CAV1 N183GC-N428C L373R; experiment: as above
[6] = target: 391-2-DS-Cav1-sc9 100C-362C; experiment: as above; further: unit not given here
[7] = target: RB94 sc9 DS-CAV1 N183GC-N428C L373R Long K226L; experiment: as above
[8] = target: 391-2 sc9 DS-Cav1 98C-362C; experiment: as above
[9] = target: 391-2-DS-Cav1_ sc9_I28C-G464C; experiment: as above
[10] = target: RB94 sc9 DS-CAV1 N183GC-N428C L373R Long; experiment: as above
[11] = target: 391-2-DS-Cav1-sc9deleteFS 98C-362C; experiment: as above
[12] = target: 391-2-DS-Cav1-sc9 99C-362C; experiment: as above
[13] = target: bRSV RB94 DSCav1 (bovine respiratory syncytial virus, strain RB94) (UniProt P23728); experiment: biolayer interferometry (Octet), variant on Ni-NTA tip, Fab in solution

Sequence of MPE8 antibody (VH): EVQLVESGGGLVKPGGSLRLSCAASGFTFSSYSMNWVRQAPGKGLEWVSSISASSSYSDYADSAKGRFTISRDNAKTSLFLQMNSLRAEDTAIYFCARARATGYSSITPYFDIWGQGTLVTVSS
Sequence of MPE8 antibody (VL): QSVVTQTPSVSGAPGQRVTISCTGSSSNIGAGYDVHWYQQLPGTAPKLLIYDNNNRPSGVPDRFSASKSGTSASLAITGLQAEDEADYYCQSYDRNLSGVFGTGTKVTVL

Q: Which results are given for MPE8 antibody?
A: ELISA binding value [1]: 0.199; response level (biolayer interferometry) [2]: 0.5 nm; ELISA binding value [3]: 0.0675; ELISA binding value [4]: 0.198; ELISA binding value [5]: 0.322; ELISA binding value [6]: 0.131; ELISA binding value [7]: 0.293; ELISA binding value [8]: 0.48; ELISA binding value [9]: 0.203; ELISA binding value [10]: 0.335; ELISA binding value [11]: 0.448; ELISA binding value [12]: 0.311

Q: With motavizumab Fab as the substance, how does the Kd [13] read?
A: The Kd was 0.9 nM.

Q: For MPE8 Fab, which Kd [13] is on record?
A: The Kd was 0.2 nM.

Q: AM14 Fab was tested. Which Kd [13] did it give?
A: Its Kd is 4.9 nM.
